# According to US20250382588A1, “CHIMERIC AAV AND USES THEREOF” (priority 2023, published 2025):
# Where a chain is given by its changes, count along the chain named. In names and notes the source's numbering stands.
# B1: AAV8R4: AAV8R capsid mutant R490Q, SEQ ID NO: 5 (protein)
# chain: MAADGYLPDWLEDNLSEGIREWWALKPGAPKPKANQQKQDDGRGLVLPGYKYLGPFNGLDKGEPVNAADAAALEHDKAYDQQLQAGDNPYLRYNHADAEFQERLQEDTSFGGNLGRAVFQAKKRVLEPLGLVEEGAKTAPGKKRPVEPSPQRSPDSSTGIGKKGQQPARKRLNFGQTGDSESVPDPQPLGEPPAAPSGVGPNTMAAGGGAPMADNNEGADGVGSSSGNWHCDSTWLGDRVITTSTRTWALPTYNNHLYKQISNGTSGGATNDNTYFGYSTPWGYFDFNRFHCHFSPRDWQRLINNNWGFRPKRLSFKLFNIQVKEVTQNEGTKTIANNLTSTIQVFTDSEYQLPYVLGSAHQGCLPPFPADVFMIPQYGYLTLNDGSQAVGRSSFYCLEYFPSQMLRTGNNFQFTYTFEDVPFHSSYAHSQSLDRLMNPLIDQYLYYLSRTQTTGGTANTQTLGFSQGGPNTMANQAKNWLPGPCYRQQQVSTTTGQNNNSNFAWTAGTKYHLNGRNSLANPGIAMATHKDDEERFFPSNGILIFGKQNAARDNADYSDVMLTSEEEIKTTNPVATEEYGIVADNLQRGNLADQDYTKTARQAATADVNSQGALPGMVWQNRDVYLQGPIWAKIPHTDGNFHPSPLMGGFGLKHPPPQILIKNTPVPADPPTTFNQSKLNSFITQYSTGQVSVEIEWELQKENSKRWNPEIQYTSNYYKSINVDFAVNTEGVYSEPRPIGTRYLTRNL
# B2: AAV8R8: AAV8R capsid mutant T495A, SEQ ID NO: 9 (protein)
# chain: B1 chain with Q490R, T495A
# B3: AAV8R2: AAV8R capsid mutant N411S, SEQ ID NO: 3 (protein)
# chain: B1 chain with N411S, Q490R
# B4: AAV8R1: AAV8R capsid mutant V183E, SEQ ID NO: 2 (protein)
# chain: B1 chain with V183E, Q490R
# B5: AAV8R3: AAV8R capsid mutant Y447F, SEQ ID NO: 4 (protein)
# chain: B1 chain with Y447F, Q490R
# B6: AAV8R7: AAV8R capsid mutant A606S, SEQ ID NO: 8 (protein)
# chain: B1 chain with Q490R, A606S
# B7: AAV8R6: AAV8R capsid mutant F536Y, SEQ ID NO: 7 (protein)
# chain: B1 chain with Q490R, F536Y
# B8: AAV8R10: AAV8R capsid mutant V125I + A606S, SEQ ID NO: 11 (protein)
# chain: B1 chain with V125I, Q490R, A606S
# B9: AAV8R9: AAV8R capsid mutant V125I + F536Y, SEQ ID NO: 10 (protein)
# chain: B1 chain with V125I, Q490R, F536Y
# B10: AAV8R5: AAV8R capsid mutant V125I, SEQ ID NO: 6 (protein)
# chain: B1 chain with V125I, Q490R
# B11: AAV8R14: AAV8R capsid mutant V125I + A606S + T495A, SEQ ID NO: 15 (protein)
# chain: B1 chain with V125I, Q490R, T495A, A606S
# B12: AAV8R13: AAV8R capsid mutant V125I + F536Y + T495A, SEQ ID NO: 14 (protein)
# chain: B1 chain with V125I, Q490R, T495A, F536Y
# B13: AAV8R11: AAV8R capsid mutant V125I + T495A, SEQ ID NO: 12 (protein)
# chain: B1 chain with V125I, Q490R, T495A
# Columns and labels:
# Type in all cases: in vivo, mice
# [1] = system: MSNs in the striatum (STR); experiment: Promoter activity driving EYFP reporter expression after AAV injection into the SNr: striatum; conditions: numbers of YFP-expressing neurons per animal
# Description: (§1) Brain profiles of two epigenetic marks for enhancers and promoters, monomethylation of histone H3 lysine 4 (H3K4me1) and acetylation of histone H3 lysine 27 (H3K27ac) were checked and approximately 2 kilobase-long sequences around the transcriptional start site (TSS) that have high levels of H3K4me1 and/or H3K27ac were identified in mouse brain. Homologous sequences at equivalent positions of the human genome were then cloned onto an AAV backbone, and the activity of the homologous sequences in directing reporter expression was tested in mice after injections of AAVs into the SNr (FIG. 3A-C, TABLE 3).
# G88P2 (2259 bp) was cloned with the following primers: 5′-[…] (SEQ ID NO.: 36) and 3-[…] (SEQ ID NO.: 37). To increase the payload of AAV genome, the G88P2 promoter was shorted using restriction enzymes, and two derivatives, G88P3 and G88P7, were made which were 1395-bp and 896-bp long, respectively (FIG. 3A-3C). Comparative efficiency in labeling MSNs for the two shortened promoters was observed. For mice that received viral injections into the SNr, viruses expressing EYFP driven by G88P3 and G88P7 promoters labeled 3.7±0.66×104 and 3.95±0.73×104 MSNs per mouse, respectively, compared to 1.61±0.16×104 labeled MSNs by hSyn promoter (FIG. 4B).
# (§2) Region-selective promoter identification was based on the Allen Brain Atlas in situ hybridization (ISH) data (mouse.brain-map.org/). Genes highly expressed in the striatum but not in other parts of the basal ganglia were first selected as candidates. H3K4me1 and H3K27ac are known epigenetic marks for active promoters and enhancers. Thus, we identified regions with high levels of these two chromatin modification marks in mouse brain as candidate regions based on the ENCODE annotation data on the UCSC Genome Browser (genome.ucsc.edu/). To further extend the promoters' potential application in primates, the sequences of interest were PCR-amplified from human genomic DNA. Based on the above strategies, GPR88 was selected as a candidate gene. The nucleotide sequence upstream of the start codon with high H3K4me1 and H3K27ac levels was selected as the candidate promoter sequence. G88P2 (2259 bp) was cloned with the following primers: 5′-[…]-3′ (SEQ ID NO: 36), 5′-[…]-3′ (SEQ ID NO: 58). G88P3 (1395 bp) and G88P7 (896 bp) were further shortened by subcloning.
# Promoters were subcloned into a pAAV-hSyn-EYFP vector derived from pAAV-hSyn-EGFP (Addgene, 50465) to replace the hSyn promoter by using appropriate restriction enzyme combinations. To generate pAAV-G88P7-DIO-tdTomato, a DIO-tdTomato cassette was subcloned into pAAV-G88P7-EYFP to replace EYFP by restriction enzyme digestion. To generate pAAV-G88P3-HA-hM3Dq, promoter G88P3 was subcloned into pAAV-hSyn-HA-hM3Dq-IRES-mCitrine (Addgene, 50463) via the EcoRI/BamHI restriction sites to replace the hSyn promoter and IRES-mCitrine was removed afterwards by restriction enzyme digestion. To generate pAAV-G88P3-HA-hM3Dq-2A-EYFP, a 2A-EYFP fragment was subcloned into pAAV-G88P3-HA-hM3Dq after hM3Dq. […]
# Images were acquired using a confocal microscope (Carl Zeiss, LSM880) and an Axiolmager.Z1 microscope with apotome (Carl Zeiss). […] Every sixth section was analyzed, and numbers of EYFP+ cells were multiplied by six to acquire the approximate total number and mean number of cells per animal. […]
# [2] = system: substantia nigra (SN); experiment: Promoter activity driving EYFP reporter expression after AAV injection into the SNr: substantia nigra; conditions: numbers of YFP-expressing neurons per animal
# Description: as §1
# as §2, with “subcloning. […]” for “subcloning.”
# Images were acquired using a confocal microscope (Carl Zeiss, LSM880) and an Axiolmager.Z1 microscope with apotome (Carl Zeiss). […] Every sixth section was analyzed, and numbers of EYFP+ cells were multiplied by six to acquire the approximate total number and mean number of cells per animal. Images were processed using ImageJ (NIH, USA), and final quantifications were independently performed manually by two blinded experimenters.
# [3] = system: striatal D1 MSNs (striatonigral projection neurons); experiment: Retrograde labeling of striatonigral projection neurons after AAV injection into the SNr; conditions: AAV8R capsid mutants; numbers of labeled neurons per animal
# Experimental: To improve efficiency, multiple rounds of mutations of AAV capsids were performed on a series of different serotypes. Mutations were introduced at three sites in the AAV8 capsid protein to make AAV8R, including N385D, insertion of […] (SEQ ID NO: 31) at position 588, and TS711-712IN. Two additional mutations of V183E and N411S were incorporated into the AAV8R12 capsid protein (FIG. 1A). The labeling pattern of the AAV8R12 capsid and G88 promoter combination was determined.
# First, the polypeptide fragment RGNLADODYTKTARQAATAD (SEQ ID NO.: 31) was inserted at the N587-R588 position; two other point mutations of the AAV2 Cap protein were made to develop rAAV2-retro. Similar mutations were then placed at equivalent positions for four other AAV serotypes (FIGS. 1A-IC and 25, TABLE 1), AAV1/5/6/8 (FIG. 1A). […] When administered into the SNr, 4.86±0.22 times EYFP positive MSNs in mice infected by AAV8R-hSyn-EYFP were observed as compared to those infected by rAAV2-retro-hSyn-EYFP (FIG. 2A-2C).
# Baseline infectivity of rAAV2-retro was approximately 0.2±0.03×10^4 cells per striatal hemisphere (using a hSyn promoter) (TABLE 2). […] Compared to the current standard retrograde AAV, rAAV2-retro, AAV8R12 labeled 7.72±0.78-times more MSNs after nigral delivery (FIG. 2B-2C, TABLE 1). […] The AAV8R12 was generated using the AAV8R plasmid as a template.
# Mice were anesthetized with sodium pentobarbital (Nembutal; 80 mg/kg, i.p.), and then placed into a stereotaxic device (KOPF). Eye cream was applied on both corneas to avoid dehydration. The skull above the targeted areas was thinned with a dental drill and carefully removed. Injections were conducted with a 10 μL syringe connected to a 33-Gauge needle (Neuros; Hamilton), using a microsyringe pump (Legato 130, KD Scientific). A total volume of 200 nL virus was injected into the SNr at a speed of 20 nL/min. The coordinates for the SNr were 3.4 mm posterior, 1.3 mm lateral, 4.8 mm ventral to the bregma.
# HEK293T cells (ATCC) were co-transfected by calcium phosphate with an AAV vector plasmid, an AAV Rep-Cap plasmid (rAAV2-retro, AAV1R, AAV5R, AAV6R, AAV8R, and AAV8R1-14), and the pAdDeltaF6 helper plasmid (Addgene, 112867) harboring the adenoviral genes required for the AAV life cycle. HEK293T cells grown in 15 cm cell culture dishes were co-transfected with the mixture of three plasmids (1:1:1) at 80% confluency. 48-72 hours post-transfection, cells were collected and resuspended in a buffer containing 150 mM NaCl and 100 mM Tris-HCl (pH 8.0). Cells were lysed by repeated freeze-thaw cycles in liquid nitrogen and a 37° C. water bath. AAV particles were purified and concentrated using Millipore Amicon 100K columns (Merck Millipore, UFC910008). Encapsidated viral DNA was quantitated by qPCR (Thermo Fisher) with primers recognizing the viral WPRE and/or ITR sequences following denaturation of the AAV particles using Proteinase K. Titers were calculated as genome copies per milliliter.
# Images were acquired using a confocal microscope (Carl Zeiss, LSM880) and an Axiolmager.Z1 microscope with apotome (Carl Zeiss). Brain structures were identified microscopically and in digital photos using a mouse brain atlas. To analyze the number of EYFP+ cells in the striatum, slices from rostral to caudal striatum were used. Every sixth section was analyzed, and numbers of EYFP+ cells were multiplied by six to acquire the approximate total number and mean number of cells per animal. Images were processed using ImageJ (NIH, USA), and final quantifications were independently performed manually by two blinded experimenters.
molecule,measurement,setting,value
"G88P2: 2259-bp promoter from the gene GPR88, SEQ ID NO: 59",Activity Level STR,[1],++++ (>25 k)
same,Activity Level SN,[2],+ (<5 k)
B1,Labeling Efficiency in Striatonigral Pathway,[3],+ (<5 k)
B2,Labeling Efficiency in Striatonigral Pathway,[3],+ (<5 k)
B3,Labeling Efficiency in Striatonigral Pathway,[3],+ (<5 k)
B4,Labeling Efficiency in Striatonigral Pathway,[3],+ (<5 k)
B5,Labeling Efficiency in Striatonigral Pathway,[3],+ (<5 k)
B6,Labeling Efficiency in Striatonigral Pathway,[3],+ (<5 k)
B7,Labeling Efficiency in Striatonigral Pathway,[3],+ (<5 k)
B8,Labeling Efficiency in Striatonigral Pathway,[3],+ (<5 k)
B9,Labeling Efficiency in Striatonigral Pathway,[3],+ (<5 k)
B10,Labeling Efficiency in Striatonigral Pathway,[3],+ (<5 k)
B11,Labeling Efficiency in Striatonigral Pathway,[3],++ (5 k-10 k)
B12,Labeling Efficiency in Striatonigral Pathway,[3],++ (5 k-10 k)
B13,Labeling Efficiency in Striatonigral Pathway,[3],+ (<5 k)
